Assay results as given in article PMC11116900, “Interaction among homeodomain transcription factors mediates ethylene biosynthesis during pear fruit ripening”.

Key:
Assay in all cases: EMSA; competed by 10x and 100x cold probe; EMSA according to a previous study (ref 35); buffer, salt, pH and temperature not given
Conditions in all cases: protein: recombinant; tags: TF (trigger factor) fusion from pCold-TF; chain copies: 2; label: biotin
PbHB.G7.2 = molecular target: T1, PbHB.G7.2 (pear (Pyrus; species  in the …, UniProt A0A5N5HLN1 1-287)
T1 sequence: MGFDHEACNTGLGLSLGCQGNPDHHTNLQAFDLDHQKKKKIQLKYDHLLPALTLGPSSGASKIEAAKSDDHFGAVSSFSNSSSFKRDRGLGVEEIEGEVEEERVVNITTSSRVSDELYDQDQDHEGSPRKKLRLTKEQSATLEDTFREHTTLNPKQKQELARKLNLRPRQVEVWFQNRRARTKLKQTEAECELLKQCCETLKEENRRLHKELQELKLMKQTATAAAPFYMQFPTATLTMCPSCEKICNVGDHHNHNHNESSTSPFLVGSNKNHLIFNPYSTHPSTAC

PbHB.G2.1 = molecular target: T2, PbHB.G2.1 (pear (Pyrus; species  in the …, UniProt A0A5N5HPW9 1-368)
T2 sequence: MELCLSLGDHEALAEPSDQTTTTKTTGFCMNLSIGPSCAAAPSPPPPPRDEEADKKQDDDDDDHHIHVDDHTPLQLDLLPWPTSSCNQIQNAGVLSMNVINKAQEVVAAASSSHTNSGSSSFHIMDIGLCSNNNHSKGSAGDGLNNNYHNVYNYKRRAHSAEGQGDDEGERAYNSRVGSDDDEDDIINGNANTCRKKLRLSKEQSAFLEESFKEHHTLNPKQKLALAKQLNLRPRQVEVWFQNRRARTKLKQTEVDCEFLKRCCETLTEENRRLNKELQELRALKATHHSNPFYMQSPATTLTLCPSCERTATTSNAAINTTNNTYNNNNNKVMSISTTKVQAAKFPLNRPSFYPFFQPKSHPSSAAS

PbHB.G1 = molecular target: T3, PbHB.G1 (pear (Pyrus; species  in the …, UniProt UPI0020301D10 1-344)
T3 sequence: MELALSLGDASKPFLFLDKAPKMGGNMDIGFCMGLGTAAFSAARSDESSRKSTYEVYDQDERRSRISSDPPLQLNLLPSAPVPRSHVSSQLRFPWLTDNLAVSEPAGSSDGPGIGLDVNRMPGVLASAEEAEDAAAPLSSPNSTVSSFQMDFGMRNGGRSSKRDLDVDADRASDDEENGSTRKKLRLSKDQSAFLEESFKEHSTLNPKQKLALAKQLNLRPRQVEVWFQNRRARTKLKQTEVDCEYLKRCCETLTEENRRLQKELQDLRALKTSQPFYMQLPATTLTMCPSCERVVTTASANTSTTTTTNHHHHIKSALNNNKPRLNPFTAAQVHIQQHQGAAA

B1: PbACS1b promoter P9 probe (34 bp) (dsDNA)
DNA 1: CTTATGGGTCGGTTTTTCTACATTTGAATTTTGA
DNA 2: TCAAAATTCAAATGTAGAAAAACCGACCCATAAG
- binding result (PbHB.G7.2): binds

B2: PbACS1b promoter P17 probe 2 (40 bp) (dsDNA)
DNA 1: CCTCAAGGAAATAGTAATACCCTTTAGATTTGAAGTCCTA
DNA 2: TAGGACTTCAAATCTAAAGGGTATTACTATTTCCTTGAGG
- binding result (PbHB.G2.1): binds

B3: PbACS1b promoter P16 probe 1 (33 bp) (dsDNA)
DNA 1: TTATATGTTGTATCTTATTTCATCGTTGATTAC
DNA 2: GTAATCAACGATGAAATAAGATACAACATATAA
- binding result (PbHB.G1): binds
